We go through three molecules from patent publication US20230263863A1, “COMPOSITIONS HAVING NEUROREGENERATIVE APPLICATIONS” (GRIFOLS WORLDWIDE OPERATIONS LIMITED, priority 2020, published 2023).

The test system of this assay is SH-SY5Y cells. The assay can be described thus: Neurite outgrowth (Outgrowth Fold Change) in undifferentiated SH-SY5Y cells. Type of assay: cell-based, human. The conditions noted are these: for neurogenesis / differentiation (neurite outgrowth): all proteins 0.2 mg/mL. The procedure:
Undifferentiated SH-SY5Y cells were seeded into 96 well clear bottom plates in media containing 0.1% FBS. A serum-free base media was utilized as recommended by the supplier for SH-SY5Y cells (Sigma, Cat #94030304-1VL). Twenty-four hours after seeding cells, a 3× stock solution of ApoTf, final concentrations indicated on the x-axis, in serum free base media was added to the cells. ApoTf was obtained and purified from pooled human plasma and dosed at a final concentration of 0.2 mg/mL. Cells were allowed to differentiate for 6 days. Neurite growth was assessed by imaging and image analysis. At the time of analysis, a 10× solution of Tubulin Tracker (Molecular Probes, T34075) and Hoechst 33342 (Molecular Probes #H3570) nuclear stain was prepared.
Briefly, Tubulin Tracker dissolved in DMSO was diluted 1:1 with Pluronic F-127 and further diluted into HBSS to generate a 10× solution. Hoechst 33342 was added to the HBSS-Tubulin Tracker solution at 10 μg/mL to generate a 10× nuclear stain. The 10× staining solution (10 μL) was added directly to treated assay wells and incubated at 37° C. for 30 minutes. Following incubation, 110 μL of 0.4% Trypan Blue was added directly to assay wells and imaged on a Molecular Devices Nano imaging instrument. Nine images/well were acquired in the blue (Nuclei) and green (Tubulin) fluorescent channels for each image.
After obtaining images, the MetaExpress Neurite Outgrowth analysis module (Molecular Devices) was used to identify cells, cell bodies, and quantify neurites. The total number of neurite branches were divided by the total number of cells imaged to account for different numbers of cells in each test well. The Outgrowth Fold Change was determined by setting the untreated control cells to a value of 1 with all other treatments shown relative to untreated control.

B1: apo-lactoferrin: structural and functional homologue of apo-transferrin, from Athens Research & Technology (protein, UniProt P02788 20-710, looked up)
Lactotransferrin: GRRRSVQWCAVSQPEATKCFQWQRNMRKVRGPPVSCIKRDSPIQCIQAIAENRADAVTLDGGFIYEAGLAPYKLRPVAAEVYGTERQPRTHYYAVAVVKKGGSFQLNELQGLKSCHTGLRRTAGWNVPIGTLRPFLNWTGPPEPIEAAVARFFSASCVPGADKGQFPNLCRLCAGTGENKCAFSSQEPYFSYSGAFKCLRDGAGDVAFIRESTVFEDLSDEAERDEYELLCPDNTRKPVDKFKDCHLARVPSHAVVARSVNGKEDAIWNLLRQAQEKFGKDKSPKFQLFGSPSGQKDLLFKDSAIGFSRVPPRIDSGLYLGSGYFTAIQNLRKSEEEVAARRARVVWCAVGEQELRKCNQWSGLSEGSVTCSSASTTEDCIALVLKGEADAMSLDGGYVYTAGKCGLVPVLAENYKSQQSSDPDPNCVDRPVEGYLAVAVVRRSDTSLTWNSVKGKKSCHTAVDRTAGWNIPMGLLFNQTGSCKFDEYFSQSCAPGSDPRSNLCALCIGDEQGENKCVPNSNERYYGYTGAFRCLAENAGDVAFVKDVTVLQNTDGNNNEAWAKDLKLADFALLCLDGKRKPVTEARSCHLAMAPNHAVVSRMDKVERLKQVLLHQQAKFGRNGSDCPDKFCLFQSETKNLLFNDNTECLARLHGKTTYEKYLGPQYVAGITNLKKCSTSPLLEACEFLRK
modifications: apo form
notes: structural and functional homologue of apo-transferrin, from Athens Research & Technology
Turning to B1, the “neurogenesis / differentiation (neurite outgrowth)” value (FIG. 4) is “induced differentiation”.

B2: BDNF: brain-derived neurotrophic factor; NGF superfamily; SEQ ID NO: 6 (protein, listed as Homo sapiens)
chain: MFHQVRRVMTILFLTMVISYFGCMKAAPMKEANIRGQGGLAYPGVRTHGTLESVNGPKAGSRGLTSLADTFEHVIEELLDEDQKVRPNEENNKDADLYTSRVMLSSQVPLEPPLLFLLEEYKNYLDAANMSMRVRRHSDPARRGELSVCDSISEWVTAADKKTAVDMSGGTVTVLEKVPVSKGQLKQYFYETKCNPMGYTKEGCRGIDKRHWNSQCRTTQSYVRALTMDSKKRIGWRFIRIDTSCVCTLTIKRGR
Turning to B2, the “differentiation (neurite outgrowth), factor alone” value (FIGS. 7A-7D, absence of ApoTf, BDNF 25 ng/mL, GDNF 1000 ng/mL, CNTF 250 ng/mL, PACAP 200 nM) is given as “differentiation was not induced”.

B3: N-mut rec ApoTf: Y95F/Y188F transferrin N-lobe mutant protein, SEQ ID NO: 4, reduced iron-binding capacity (protein)
chain: VPDKTVRWCAVSEHEATKCQSFRDHMKSVIPSDGPSVACVKKASYLDCIRAIAANEADAVTLDAGLVYDAYLAPNNLKPVVAEFYGSKEDPQTFFYAVAVVKKDSGFQMNQLRGKKSCHTGLGRSAGWNIPIGLLYCDLPEPRKPLEKAVANFFSGSCAPCADGTDFPQLCQLCPGCGCSTLNQYFGFSGAFKCLKDGAGDVAFVKHSTIFENLANKADRDQYELLCLDNTRKPVDEYKDCHLAQVPSHTVVARSMGGKEDLIWELLNQAQEHFGKDKSKEFQLFSSPHGKDLLFKDSAHGFLKVPPRMDAKMYLGYEYVTAIRNLREGTCPEAPTDECKPVKWCALSHHERLKCDEWSVNSVGKIECVSAETTEDCIAKIMNGEADAMSLDGGFVYIAGKCGLVPVLAENYNKSDNCEDTPEAGYFAVAVVKKSASDLTWDNLKGKKSCHTAVGRTAGWNIPMGLLYNKINHCRFDEFFSEGCAPGSKKDSSLCKLCMGSGLNLCEPNNKEGYYGYTGAFRCLVEKGDVAFVKHQTVPQNTGGKNPDPWAKNLNEKDYELLCLDGTRKPVEEYANCHLARAPNHAVVTRKDKEACVHKILRQQQHLFGSNVTDCSGNFCLFRSETKDLLFRDDTVCLAKLHDRNTYEKYLGEEYVKAVGNLRKCSTSSLLEACTFRRP
modifications: Y95F/Y188F mutant
For the molecule B3, for the setting “FIG. 3B”, the “neurogenesis / differentiation (neurite outgrowth)” value was “almost equal to that of ApoTf and rec ApoTf at inducing differentiation”.
